Test results as given in patent US20200399385A1 (Bristol-Myers Squibb, published 2020).

What was measured:
[1] = target: T1, human OX40 on cells (human, UniProt P43489 29-277); assay: FACS, activated human T cells; mean ± SD, n=2
T1 construct: also called hOX40-293 cells; hOX40-HT1080
T1 sequence: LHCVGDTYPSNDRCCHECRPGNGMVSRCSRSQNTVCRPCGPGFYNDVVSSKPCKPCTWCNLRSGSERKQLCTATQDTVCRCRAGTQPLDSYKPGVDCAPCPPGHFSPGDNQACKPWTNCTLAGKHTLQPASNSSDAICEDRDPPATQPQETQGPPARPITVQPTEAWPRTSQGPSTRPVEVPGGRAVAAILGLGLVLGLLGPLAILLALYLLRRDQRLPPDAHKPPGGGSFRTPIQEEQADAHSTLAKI
Experimental: Cells were activated for several days before the binding assay in order to induce OX40 expression. Briefly, PBMCs were cultured for three or four days with magnetic beads coated with anti-human CD3 plus anti-human CD28, in the presence of recombinant human IL-2. On the day of the assay, the beads were removed and the cells stained with a titration of each anti-OX40 antibody. Bound antibodies were detected with a fluorescently conjugated anti-human IgG polyclonal secondary antibody, and the cells were co-stained for CD4 and CD25 to detect activated CD4 T cells. The fluorescence intensity of the staining was measured using a FACSCanto II flow cytometer (Becton Dickinson). The geometric mean fluorescence intensity (GMFI) or median fluorescence intensity (MedFI) of anti-OX40 antibody staining was calculated for the CD4+CD25+ population (FACSDiva software). EC₅₀s for antibody binding were calculated using GraphPad Prism software.

[2] = target: T2, cynomolgus OX40 on cells (cynomolgus, UniProt P43489 29-277 (human entry)); assay: FACS, activated cyno T cells; n=1
T2 construct: also called cynoOX40-CHO
T2 chain: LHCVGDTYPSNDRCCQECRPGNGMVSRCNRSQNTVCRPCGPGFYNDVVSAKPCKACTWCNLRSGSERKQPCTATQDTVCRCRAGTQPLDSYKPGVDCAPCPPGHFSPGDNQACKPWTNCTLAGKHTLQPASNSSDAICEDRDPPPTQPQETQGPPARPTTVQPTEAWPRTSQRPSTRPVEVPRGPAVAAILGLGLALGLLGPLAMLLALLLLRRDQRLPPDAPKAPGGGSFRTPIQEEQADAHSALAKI
Experimental: (§1) Briefly, cells were activated for several days before the binding assay in order to induce OX40 expression. Total leukocytes were isolated from cynomolgus macaque peripheral blood by lysis of red blood cells using an ammonium chloride buffer. The leukocytes were then cultured for four to five days with in flasks pre-coated with anti-human CD3 plus anti-human CD28 antibodies that cross-react with cynomolgus macaque, in the presence of recombinant human IL-2, in order to expand and activate T cells. On the day of the assay, the cells were harvested and stained with a titration of each anti-OX40 antibody. Bound antibodies were detected with a fluorescently conjugated anti-human IgG polyclonal secondary antibody, and the cells were co-stained for CD4 and CD25 to detect activated CD4 T cells. The fluorescence intensity of the staining was measured using a FACSCanto II flow cytometer (Becton Dickinson). The geometric mean fluorescence intensity (GMFI) or median fluorescence intensity (MedFI) of anti-OX40 antibody staining was calculated for the CD4+CD25+ population (FACSDiva software). Dose-response curves were generated and EC50s for antibody binding were calculated using GraphPad Prism software.

[3] = target: T1, human OX40 on cells; assay: FACS, blocking of OX40L-His (0.2 µg/mL) binding to hOX40-293 cells
Experimental: Briefly, 293 cells stably transfected with human OX40 were first pre-incubated with varying concentrations of anti-OX40 antibodies. […] The fluorescence intensity of the staining was measured using a FACSCanto II flow cytometer (Becton Dickinson).

[4] = target: T1, human OX40 on cells; assay: cell-based or functional assay
[5] = target: T1, human OX40 on cells; assay: FACS competition on HT1080-hOX40 cells against APC-OX40.1 (FL2 MFI); the table gives no unit, axis 'Ab conc nM'
Experimental: This experiment was performed to test the cross-blocking properties of various anti-OX40 antibodies to assess binding specificities. […] Cells were washed and if necessary further incubated in the presence of streptavidin-APC conjugate under the same conditions. After the final wash, cells were analyzed on a FACSCanto flow cytometer (BD Bioscience, San Jose, Calif.). Mean fluorescence intensity (MFI) signal was proportional to bound conjugated antibody.

[6] = target: T3, his-tagged soluble human OX40 (huOX40-6xhis) (human, UniProt P43489 29-214); assay: SPR, mAb captured on anti-human CH1, OX40-6XHIS analyte, 1:1 fit
T3 construct: made in-house; also called Human-OX40-6XHIS; hOX40; not shown: hexahistidine tag
T3 sequence: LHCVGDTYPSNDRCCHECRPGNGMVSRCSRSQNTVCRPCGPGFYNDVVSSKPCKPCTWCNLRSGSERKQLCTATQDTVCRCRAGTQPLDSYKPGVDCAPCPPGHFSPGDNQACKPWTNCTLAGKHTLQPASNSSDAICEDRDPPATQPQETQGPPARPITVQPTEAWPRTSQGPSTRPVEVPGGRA
Experimental: The affinity of several OX40 antibodies for soluble human OX40 was tested by SPR analysis. […] Human-OX40-6XHIS antigen in either a single concentration of 400 nM or a 1:2 serial dilution from 400 nM was used. Experiments were carried out on BIACORE® T200 or BIACORE® 3000 SPR instruments. Data was fit to a 1:1 model.

[7] = target: T1, human OX40 on cells; assay: FACS, activated human T cells; mean ± SD, n=7
[8] = target: T2, cynomolgus OX40 on cells; assay: FACS, activated cyno CD4 T cells
Experimental: as §1
The same experiment was performed with anti-OX40 antibodies with variable region substitutions.

[9] = target: T2, cynomolgus OX40 on cells; assay: FACS, activated cyno T cells; mean ± SD, n=5
Experimental: as §1

[10] = target: T1, human OX40 on cells; assay: cell-based or functional assay; remark: listed apart in the source
[11] = target: T1, human OX40 on cells; assay: FACS competition on hOX40-293 cells against biotin-OX40.5 (spike biotOX.5 @ 1.0 ug/mL, streptavidin-APC); partial inhibition, FL4-MFI falls from about 29000 to about 17000; the table gives no unit, axis in nM

B1: 14B6 (antibody, V domains shown)
VH: EVQLEQSGAEVKKPGESLKISCKGSGYSFTSNWIGWVRQMPGKGLEWMGFIYPGDSDTRYSPSFQGQVTISADKSISTAYLQWSSLKASDIAMYYCARYGDDWYFDLWGRGTLVTVSS
VL: EIVLTQSPATLSLSPGERATLSCRASQSVSSYLAWFQQRPGQAPRLLIYDASNRATGIPARFSGSGSGTDFSLTISSLEPEDFAVYYCQQRGDWPITFGQGTRLEIK
notes: also called 14B6.C5.C8; 14B6.C5
EC50 [1]: 0.18 nM
EC50 [2]: 0.31 nM
EC50 [3]: 1 nM
Proliferation EC50, CD4 T cells + CHO-CD3-CD32A [4]: 0.012 nM
IC50 [5]: 0.7 nM
Kd [6]: 8.84 nM
koff [6]: 0.000654 s⁻¹
kon [6]: 74000 M⁻¹ s⁻¹

B2: OX40.6 (antibody, human IgG1, kappa, V domains shown)
VH: EVQLVQSGGGLVQPGGSLRLSCAGSGFTFSNYAMYWVRQAPGKGLEWVSAIGIGGDTFYTDSVKGRFTISRDNAKNSLSLQMNSLRAEDTAVYYCARMGTGYFFDYWGQGTLVTVSS
VL: EIVLTQSPATLSLSPGERATLSCRASQSVSSYLAWYQQKPGQAPRLLIYDASNRATGIPARFSGSGSGTDFTLTISSLEPEDFAVYYCQQRSNWPLTFGPGTKVDIKR
EC50 [7]: 0.13 nM
EC50 [8]: ≤ 0.12 nM
EC50 [9]: 0.11 nM
IL-2 EC50, SEB PBMC, donor BMS-001 [10]: 0.49 nM
IL-2 EC50, SEB PBMC, donor BMS-004 [10]: 0.48 nM
IL-2 EC50, SEB PBMC, donor BMS-009 [10]: 0.45 nM
IL-2 EC50, SEB PBMC, donor BMS-012 [10]: 0.66 nM
IL-2 EC50, SEB PBMC, donor BMS-015 [10]: ~0.46 nM
IL-2 EC50, SEB PBMC, donor BMS-016 [10]: 0.29 nM
IL-2 EC50, SEB PBMC, donor WB10024 [10]: ~0.42 nM
IL-2 EC50, SEB PBMC, donor WB10025 [10]: ~0.85 nM
IL-2 EC50, SEB PBMC, donor WB10026 [10]: 0.28 nM
IL-2 EC50, SEB PBMC, donor WB10027 [10]: 0.45 nM
IL-2 EC50, SEB PBMC, donor WB10137 [10]: 0.56 nM
IL-2 Mean EC50, SEB PBMC, all donors [10]: 0.46 nM
IFNγ EC50, CD4 T cells + CHO-CD3-CD32A [4]: 0.033 nM
Proliferation EC50, CD4 T cells + CHO-CD3-CD32A [4]: 0.032 nM
EC50 [11]: 0.857 nM
